How the values were obtained:
[1] = target: PCDGF receptor on breast cancer cells (MCF-7; AG-BC1); test: PCDGF binding to AG-BC1 cells against MCF-7 cells; method not stated
[2] = target: PCDGF cell surface receptors on the mink lung epithelial cell line CCL64 (mink); test: Scatchard analysis of 125I-PCDGF binding to CCL64 cells, low affinity class
[3] = target: PCDGF cell surface receptors on the mink lung epithelial cell line CCL64 (mink); test: Scatchard analysis of 125I-PCDGF binding to CCL64 cells, high affinity class

fold increase in binding against MCF-7 cells [1]: 10 fold | Kd [2]: 3.9 nM | Kd [3]: 0.043 nM
Substance: PC-cell-derived growth factor (PCDGF) (ligand)
